Results published in article PMC2430598, “Structural Analysis Reveals Conformational Plasticity in the Recognition of RNA 3′ Ends by the Human La Protein”.

Legend:
LaNTD (La 1-194) [1] = molecular target: T1, LaNTD (La 1-194) (Homo sapiens, UniProt P05455 1-194); test: EMSA; EMSA: ~1 nM radiolabeled RNA, protocol of Jacks et al. 2003 (buffer, salt, pH, temperature not given); NMR: 15N-LaNTD, RNA:protein 0.2-1.5:1, NMR buffer not given; details: protein: recombinant, single strand
T1 sequence: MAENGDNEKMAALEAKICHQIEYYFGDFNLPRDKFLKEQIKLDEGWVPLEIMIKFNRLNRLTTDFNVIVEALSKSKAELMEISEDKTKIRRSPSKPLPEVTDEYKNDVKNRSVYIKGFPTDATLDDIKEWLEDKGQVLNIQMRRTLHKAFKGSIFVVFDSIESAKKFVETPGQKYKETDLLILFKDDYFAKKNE

LaNTD (La 1-194) [2] = molecular target: T1, LaNTD (La 1-194); test: NMR HSQC titration and relaxation; EMSA: ~1 nM radiolabeled RNA, protocol of Jacks et al. 2003 (buffer, salt, pH, temperature not given); NMR: 15N-LaNTD, RNA:protein 0.2-1.5:1, NMR buffer not given; details: protein: recombinant; single strand
LaNTD (La 4-194) [3] = molecular target: T2, LaNTD (La 4-194) (Homo sapiens, UniProt P05455 4-194); test: X-ray crystallography; 1.8 A, P21212; only last two U modelled; EMSA: ~1 nM radiolabeled RNA, protocol of Jacks et al. 2003 (buffer, salt, pH, temperature not given); NMR: 15N-LaNTD, RNA:protein 0.2-1.5:1, NMR buffer not given; details: protein: recombinant; tags: N-terminal 6xHis removed by thrombin; leaves Gly-Ser; single strand
T2 sequence: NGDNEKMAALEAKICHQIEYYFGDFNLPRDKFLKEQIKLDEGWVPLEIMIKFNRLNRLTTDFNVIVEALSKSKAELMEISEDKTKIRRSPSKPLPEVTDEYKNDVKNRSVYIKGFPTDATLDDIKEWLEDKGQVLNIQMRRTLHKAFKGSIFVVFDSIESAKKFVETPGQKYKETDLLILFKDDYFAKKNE

LaNTD (La 4-194) [4] = molecular target: T2, LaNTD (La 4-194); test: X-ray crystallography; 2.1 A, C2; EMSA: ~1 nM radiolabeled RNA, protocol of Jacks et al. 2003 (buffer, salt, pH, temperature not given); NMR: 15N-LaNTD, RNA:protein 0.2-1.5:1, NMR buffer not given; details: protein: recombinant; tags: N-terminal 6xHis removed by thrombin; leaves Gly-Ser; single strand
LaNTD (La 1-194) [5] = molecular target: T1, LaNTD (La 1-194); test: EMSA; reference oligomer for relative Kd; EMSA: ~1 nM radiolabeled RNA, protocol of Jacks et al. 2003 (buffer, salt, pH, temperature not given); NMR: 15N-LaNTD, RNA:protein 0.2-1.5:1, NMR buffer not given; details: protein: recombinant; label: radiolabeled; single strand
LaNTD (La 1-194) [6] = molecular target: T1, LaNTD (La 1-194); test: NMR HSQC titration; split resonances, two states; EMSA: ~1 nM radiolabeled RNA, protocol of Jacks et al. 2003 (buffer, salt, pH, temperature not given); NMR: 15N-LaNTD, RNA:protein 0.2-1.5:1, NMR buffer not given; details: protein: recombinant; single strand
LaNTD (La 4-194) [7] = molecular target: T2, LaNTD (La 4-194); test: X-ray crystallography; 2.8 A, C222; EMSA: ~1 nM radiolabeled RNA, protocol of Jacks et al. 2003 (buffer, salt, pH, temperature not given); NMR: 15N-LaNTD, RNA:protein 0.2-1.5:1, NMR buffer not given; details: protein: recombinant; tags: N-terminal 6xHis removed by thrombin; leaves Gly-Ser; single strand
LaNTD (La 1-194) [8] = molecular target: T1, LaNTD (La 1-194); test: NMR HSQC titration; EMSA: ~1 nM radiolabeled RNA, protocol of Jacks et al. 2003 (buffer, salt, pH, temperature not given); NMR: 15N-LaNTD, RNA:protein 0.2-1.5:1, NMR buffer not given; details: protein: recombinant; single strand

B1: CACACACCUU (ssRNA)
RNA: CACACACCUU
For B1, the binding signal (LaNTD (La 1-194) [1]; label: radiolabeled) was 2.4 ± 0.5 Kd relative to CACACAAUUU (30 nM).

B2: CACACAACUU (ssRNA)
RNA: CACACAACUU
For B2, the binding signal (LaNTD (La 1-194) [1]; label: radiolabeled) was 2 ± 0.8 Kd relative to CACACAAUUU (30 nM).

B3: CACACAUUUU (ssRNA)
RNA: CACACAUUUU
With B3 the binding signal (LaNTD (La 1-194) [1]; label: radiolabeled) was 0.8 ± 0.3 Kd relative to CACACAAUUU (30 nM).

B4: UUUU (ssRNA)
RNA: UUUU
B4: binds (LaNTD (La 1-194) [2]).

B5: CACACAUCUU (ssRNA)
RNA: CACACAUCUU
B5 was tested, and the binding signal (LaNTD (La 1-194) [1]; label: radiolabeled) was 1.4 ± 0.5 Kd relative to CACACAAUUU (30 nM).

B6: UUUUUUUU (U8) (ssRNA)
RNA: UUUUUUUU
B6: binds (LaNTD (La 4-194) [3]).

B7: UUU (ssRNA)
RNA: UUU
B7: binds (LaNTD (La 1-194) [2]).

B8: UUUUUUUUUU (U10) (ssRNA)
RNA: UUUUUUUUUU
With B8 the binding signal (LaNTD (La 1-194) [1]; (radiolabeled) in gel shift, unlabeled in NMR) was 1 ± 0.4 Kd relative to CACACAAUUU (30 nM).

B9: AUAUUUU (ssRNA)
RNA: AUAUUUU
B9: binds (LaNTD (La 4-194) [4]).

B10: ACACACUUUU (ssRNA)
RNA: ACACACUUUU
For B10, the binding signal (LaNTD (La 1-194) [1]; label: radiolabeled) was 0.7 ± 0.2 Kd relative to CACACAAUUU (30 nM).

B11: CACACAAUUU (ssRNA)
RNA: CACACAAUUU
With B11 the Kd (LaNTD (La 1-194) [5]) was 30 nM.

B12: AUUUU (ssRNA)
RNA: AUUUU
B12: binds (LaNTD (La 1-194) [6]); binds (LaNTD (La 4-194) [7]).

B13: CACACAUAUU (ssRNA)
RNA: CACACAUAUU
In the case of B13, the binding signal (LaNTD (La 1-194) [1]; label: radiolabeled) is reported as 1 ± 0.2 Kd relative to CACACAAUUU (30 nM).

B14: UCUU (ssRNA)
RNA: UCUU
B14: binds (LaNTD (La 1-194) [8]).

B15: AUAAUUU (ssRNA)
RNA: AUAAUUU
B15: binds (LaNTD (La 4-194) [4]).

B16: CACACACUUU (ssRNA)
RNA: CACACACUUU
In the case of B16, the binding signal (LaNTD (La 1-194) [1]; label: radiolabeled) is reported as 1.2 ± 0.4 Kd relative to CACACAAUUU (30 nM).

B17: CACACAAAUU (ssRNA)
RNA: CACACAAAUU
With B17 the binding signal (LaNTD (La 1-194) [1]; label: radiolabeled) was 2.8 ± 1.1 Kd relative to CACACAAUUU (30 nM).
